Assay [1] has as its target T1, human thyroglobulin (TG) peptide on HLA-A*02:01 (human).
T1 peptide: LVLEIFTLL
Description: cytokine release. The method, then: (§1) Interferon (IFN)-γ release by transduced PBL was determined as previously described in Wang et al., J. Immunol. Methods, 366(1-2): 43-51 (2011). Briefly, retrovirally-transduced cells (1×10⁵) were co-cultured with 5×10⁴ target cells (XTC, XTC/A2, Cos A2, or Cos A2 transfected with TG) or control tumor cell lines for 18-22 hrs in RPMI with 10% FBS at 37° C., 5% CO₂. On the subsequent day, IFN-γ secretion was determined by enzyme-linked immunosorbent assay (ELISA).

Assay [2] addresses T2, human thyroglobulin (TG) peptide on HLA-A*02:01 (human).
T2 peptide: NLFGGKFLV
Put plainly: cytokine release. The protocol:
as §1

B1: human anti-TG TCR (TCR, V domains shown)
Valpha: RKEVEQDPGPFNVPEGATVAFNCTYSNSASQSFFWYRQDCRKEPKLLMSVYSSGNEDGRFTAQLNRASQYISLLIRDSKLSDSATYLCVVHSSNTGKLIFGQGTTLQVKP
Vbeta: NAGVTQTPKFQVLKTGQSMTLQCAQDMNHEYMSWYRQDPGMGLRLIHYSVGAGITDQGEVPNGYNVSRSTTEDFPLRLLSAAPSQTSVYFCASSYSLTSGGALVSYEQYFGPGTRLTVT
As to B1, the binding result in assay [1] is given as “recognises”.

B2: murine anti-TG TCR (TCR, V domains shown)
Valpha: GEQVEQRPPHLSVREGDSAVIICTYTDPNSYYFFWYKQEPGAGLQLLMKVFSSTEINEGQGFTVLLNKKDKQLSLNLTAAHPGDSAVYFCAVSSSGSWQLIFGSGTQLTVMP
Vbeta: NSKVIQTPRYLVKGQGQKAKMRCIPEKGHPVVFWYQQNKNNEFKFLINFQNQEVLQQIDMTEKRFSAECPSNSPCSLEIQSSEAGDSALYLCASLGGSQDTQYFGPGTRLLVL
Regarding B2, in assay [2], the binding result is “recognises”.

The values are drawn from patent US20180244768A1 (published 2018).
